# Changes are numbered by the printed parent chain. In names and notes the source's numbering stands.
# T1: mouse TIGIT on cells (Jurkat-mTIGIT) (mouse, UniProt P86176 29-249)
# T1 construct: whole, on cells
# T1 sequence (looked up): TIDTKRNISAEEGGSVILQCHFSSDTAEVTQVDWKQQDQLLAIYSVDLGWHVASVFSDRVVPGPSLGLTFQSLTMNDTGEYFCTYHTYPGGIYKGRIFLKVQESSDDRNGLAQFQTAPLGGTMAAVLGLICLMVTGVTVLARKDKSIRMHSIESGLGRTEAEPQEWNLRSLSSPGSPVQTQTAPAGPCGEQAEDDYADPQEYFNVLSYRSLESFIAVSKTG
# T2: human TIGIT on cells (Jurkat-hTIGIT, human primary T cells) (human, UniProt Q495A1 22-244)
# T2 sequence (looked up): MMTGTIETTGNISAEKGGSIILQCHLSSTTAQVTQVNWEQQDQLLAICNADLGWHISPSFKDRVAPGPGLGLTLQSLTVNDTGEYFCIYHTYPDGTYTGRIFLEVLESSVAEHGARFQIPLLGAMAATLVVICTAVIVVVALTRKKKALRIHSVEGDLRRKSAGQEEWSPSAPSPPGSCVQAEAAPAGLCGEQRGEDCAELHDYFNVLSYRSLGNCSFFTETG
# B1: anti-TIGIT antibody clone 26521 (antibody, V domains shown)
# VH: QVQLVQSGAEVKKPGSSVKVSCKASGGTFSSYAISWVRQAPGQGLEWMGGIIPIFGTANYAQKFQGRVTITADESTSTAYMELSSLRSEDTAVYYCARLHLGSSAYYGMDVWGQGTTVTVSS
# VL: DIQMTQSPSSLSASVGDRVTITCRASQSISSYLNWYQQKPGKAPKLLIYAASSLQSGVPSRFSGSGSGTDFTLTISSLQPEDFATYYCQQRYVFPPTFGGGTKVEIK
# notes: Naive parent clone, VH1-69; human IgG; Fab for 'Fab KD' columns
# B2: anti-TIGIT antibody clone 29513 (antibody, V domains shown)
# VH: B1 VH with S30Q, S31N, G50V, I52V, I70V, S103Q, S104K
# VL: B1 VL
# notes: human IgG; Fab for 'Fab KD' columns
# B3: anti-TIGIT antibody clone 26493 (antibody, V domains shown)
# VH: EVQLVESGGGLVQPGRSLRLSCAASGFTFGDYAMHWVRQAPGKGLEWVSGITWNSGSIGYADSVKGRFTISRDNAKNSLYLQMNSLRAEDTALYYCAKPVPKSRGLDVWGQGTMVTVSS
# VL: DIQLTQSPSSVSASVGDRVTITCRASQGISSWLAWYQQKPGKAPKLLIYGASSLQSGVPSRFSGSGSGTDFTLTISSLQPEDFATYYCQQAFYLPWTFGGGTKVEIK
# notes: Naive parent clone, VH3-09; human IgG; Fab for 'Fab KD' columns; mouse IgG2a/IgG1 versions only used in vivo / ex vivo; also called surrogate anti-TIGIT antagonistic antibody
# B4: anti-TIGIT antibody clone 29520 (antibody, V domains shown)
# VH: B3 VH with E1Q, G30R, S57L, K102R, S103L
# VL: B3 VL
# notes: as for B2
# B5: anti-TIGIT antibody clone 29523 (antibody, V domains shown)
# VH: EVQLVESGGGVVQPGRSLRLSCAASGFTFGSYYMHWVRQAPGKGLEWVAVIWPDGSNKLYADSVKGRFTISRDNSKNTLYLQMNSLRAEDTALYYCAKPVPKSRALDVWGQGTMVTVSS
# VL: B3 VL
# notes: as for B2
# B6: anti-TIGIT antibody clone 29527 (antibody, V domains shown)
# VH: B5 VH with E1Q, G30S, Y32S, W52G, P53A, L59Y, K65E, K102R, S103R, A105G
# VL: B3 VL
# notes: human IgG
# B7: anti-TIGIT antibody clone 29478 (antibody, V domains shown)
# VH: EVQLVESGGGVVQPGRSLRLSCAASGFTFESYGMVWVRQAPGKGLEWVASILYDGSNRYYADSVKGRFTVSRDNSKNTLYLQMNSLRAEDTAVYYCARVSYYYDSVELRWAEYFQHWGQGTLVTVSS
# VL: EIVLTQSPATLSLSPGERATLSCRASQSVSSYLAWYQQKPGQAPRLLIYDASKRATGIPARFSGSGSGTDFTLTISSLEPEDFAVYYCQQVHNFPLTFGGGTKVEIK
# notes: as for B2
# B8: anti-TIGIT antibody clone 26486 (antibody, V domains shown)
# VH: QVQLQESGPGLVKPSETLSLTCAVSGYSISSGYYWAWIRQPPGKGLEWIGSIYHSGSTYYNPSLKSRVTISVDTSKNQFSLKLSSVTAADTAVYYCAIEGANYYDFGYVAFDIWGQGTMVTVSS
# VL: EIVMTQSPATLSVSPGERATLSCRASQSVSSNLAWYQQKPGQAPRLLIYGASTRATGIPARFSGSGSGTEFTLTISSLQSEDFAVYYCQQSPPWPRTFGGGTKVEIK
# notes: Naive parent clone, VH4-0B; human IgG; Fab for 'Fab KD' columns
# B9: anti-TIGIT antibody clone 29494 (antibody, V domains shown)
# VH: QVQLQESGPGLVKPSETLSLTCTVSGGSISSGSYYLAWIRQPPGKGLEWIGSIFRSGSTYYNPSLESRVTISVDTSKNQFSLKLSSVTAADTAVYYCAIEGANFKDFGYVAFDIWGQGTMVTVSS
# VL: B8 VL
# notes: as for B2
# B10: anti-TIGIT antibody clone 29499 (antibody, V domains shown)
# VH: B9 VH with V2L, G32S, S33R, L36W, F54G, R55T, E66K, A90T, K105R
# VL: B8 VL
# notes: as for B2
# B11: comparative anti-TIGIT antibody 4.1D3.Q1E (antibody, human IgG1, V domains shown)
# VH: EVQLQQSGPGLVKPSQTLSLTCAISGDSVSSNSAAWNWIRQSPSRGLEWLGKTYYRFKWYSDYAVSVKGRITINPDTSKNQFSLQLNSVTPEDTAVFYCTRESTTYDLLAGPFDYWGQGTLVTVSS
# VL: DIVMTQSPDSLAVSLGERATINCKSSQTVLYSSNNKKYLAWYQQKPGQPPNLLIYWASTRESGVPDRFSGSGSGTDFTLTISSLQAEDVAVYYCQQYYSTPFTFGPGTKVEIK
# B12: comparative anti-TIGIT antibody 22G2 (antibody, human IgG1, V domains shown)
# VH: QVHLQESGPGLVKPSETLSLTCTVSGGSVSSGIYYWSWIRQPPGKGLEWIGYIYYSGSTNYNPSLKSRVTISVDTSKNQFSLKLSSVTAADTAVYYCARDYYVSGNYYNVDYYFFGVDVWGQGTTVTVSS
# VL: EIVLTQSPATLSLSPGERATLSCRASQSVSSYLAWYQQKPGQAPRLLIYDASNRATGIPARFSGSGSGTDFTLTISSLEPEDFAVYYCQQRSNWPPLFTFGPGTKVDIK
# B13: comparative anti-TIGIT antibody 31C6 (MEB125.31C6.A1.205 VH4/VL1) (antibody, human IgG1, V domains shown)
# VH: EVQLVQSGAEVKKPGASVKVSCKASGYTFSSYVMHWVRQAPGQGLEWIGYIDPYNDGAKYAQKFQGRVTLTSDKSTSTVYMELSSLRSEDTAVYYCARGGPYGWYFDVWGQGTTVTVSS
# VL: DIQMTQSPSSLSASVGDRVTITCRASEHIYSYLSWYQQKPGKAPKLLIYNAKTLAEGVPSRFSGSGSGTDFTLTISSLQPEDFATYYCQHHFGSPLTFGQGTRLEIK
# B14: anti-TIGIT antibody clone 32919 (antibody, V domains shown)
# VH: B9 VH with V2L, M120T
# VL: B7 VL with K53N, V91E, H92N, N93P, F94R, L96R
# notes: L1/L2/L3 optimised from 31288; human IgG
# B15: anti-TIGIT antibody clone 32931 (antibody, V domains shown)
# VH: B9 VH with V2L, M120T
# VL: B8 VL with Q27K, G50F, S91T, P92S
# notes: as for B14
# B16: anti-TIGIT antibody clone 31282 (antibody, V domains shown)
# VH: QVQLVQSGAEVKKPGASVKVSCKASGYTFTSYYMHWVRQAPGQGLEWMGVIGPSGASTSYAQKFQGRVTLTRDTSTSTVYMELSSLRSEDTAVYYCARDHSDYWSGIMEVWGQGTTVTVSS
# VL: EIVLTQSPGTLSLSPGERATLSCRASQSVRSSYLAWYQQKPGQAPRLLIYGASSRATGIPDRFSGSGSGTDFTLTISRLEPEDFAVYYCQQYFSPPWTFGGGTKVEIK
# Molecular target: T1, mouse TIGIT on cells (Jurkat-mTIGIT)
# Experiment: flow cytometry on Jurkat-mTIGIT, 100 nM antibody, vs untransfected Jurkat
# Protocol: (§1) Antibodies were incubated with the cells for 20 min at 4° C. in FACS buffer. […] Geometric mean fluorecence intensity was analysed using LSR BD Fortessa. Cell binding was recorded as the median florescence intensity of PE on the transfected line compared to the un-transfected line for each antibody (Table 3).
row,Binder,Cell binding FON (Fold Over Negative) [fold over negative]
1,B1,218
2,B2,406
3,B3,463
4,B4,535
5,B5,502
6,B6,414
7,B7,500
8,B8,199
9,B9,511
10,B10,541

# Molecular target: T2, human TIGIT on cells (Jurkat-hTIGIT, …)
# Experiment: cell-based or functional assay
row,Binder,"luciferase induction over isotype control (fold change), Jurkat-hTIGIT + CHO-TCR-CD155 bioassay, 133 nM antibody [fold]"
1,B1,2.66
2,B2,3.26
3,B3,0.96
4,B4,2.52
5,B5,2.4
6,B6,2.96
7,B7,3.57
8,B8,1.9
9,B9,3.42
10,B10,3.68

# Molecular target: T2, human TIGIT on cells (Jurkat-hTIGIT, …)
# Experiment: cell-based or functional assay
# Remark: another data set of the same source
Binder,"EC50 (nM), luciferase, Jurkat-hTIGIT + CHO-CD155 [nM]","luciferase induction over isotype control (fold change), Jurkat-hTIGIT + CHO-CD155 [fold]"
B11,10.3,5.8
B12,5.2,5.3
B13,5.3,6.7

# Molecular target: T2, human TIGIT on cells (Jurkat-hTIGIT, …)
# Experiment: flow cytometry on Jurkat-hTIGIT, 100 nM antibody, vs untransfected Jurkat
# Protocol: as §1
row,Binder,Cell binding FON (Fold Over Negative) [fold over negative]
1,B1,146
2,B2,156
3,B3,80
4,B4,166
5,B5,150
6,B6,142
7,B7,182
8,B8,143
9,B9,164
10,B10,164
11,B14,680
12,B15,741

# Molecular target: T2, human TIGIT on cells (Jurkat-hTIGIT, …)
# Experiment: cell-based or functional assay
# Remark: another data set of the same source
Binder,"EC50 (nM), IFNg, human primary CD8+ T cells + CHO-CD155 [nM]","IFNg induction over isotype control (fold change), human primary CD8+ T cells + CHO-CD155 [fold]"
B11,1.43,2.9
B12,0.41,1.5
B13,0.3,1.6

# Molecular target: T1, mouse TIGIT on cells (Jurkat-mTIGIT)
# Experiment: cell-based or functional assay
row,Binder,"IFNg production by mouse OT-1 CD8+ T cells co-cultured with OVA-pulsed PanO2 cells, 133 nM antibody [fold]"
1,B3,~2

# Molecular target: T3, anti-idiotypic antibody clone 32869
# T3 construct: Human IgG1 from HEK293, selected from the HuCAL library
# T3 sequence (VH, as listed by the source, chain 1 of 2): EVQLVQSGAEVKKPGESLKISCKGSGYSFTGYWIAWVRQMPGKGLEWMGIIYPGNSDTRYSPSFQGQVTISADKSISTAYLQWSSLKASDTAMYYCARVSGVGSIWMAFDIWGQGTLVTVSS
# T3 sequence (VL, as listed by the source, chain 2 of 2): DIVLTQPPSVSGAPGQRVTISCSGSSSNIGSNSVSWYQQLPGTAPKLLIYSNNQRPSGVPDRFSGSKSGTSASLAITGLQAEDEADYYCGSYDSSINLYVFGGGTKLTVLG
# Experiment: MSD electrochemiluminescence bridging ELISA: anti-idiotypic antibody 32869 coated on the plate, clone 31282 spiked in human serum, detection with Sulfo-TAG 32869
# From the text: The ELISA assay is based on the Meso Scale Discovery (MSD) Platform using electrochemiluminescence detection technology. […] A voltage is applied to the plate electrodes, causing the bound Sulfo-TAG to emit light via electrochemical stimulation.
row,Binder,binding result
1,B16,binds

# Reference: patent US20220306733A1 (ITEOS BELGUIM, published 2022)
